From PMC6770577, “TRPM6 N-Terminal CaM- and S100A1-Binding Domains” (International Journal of Molecular Sciences, 2019) come the findings set out here.

This experiment has as its target T1, S100A1 (Homo sapiens), P23297.
T1 chain: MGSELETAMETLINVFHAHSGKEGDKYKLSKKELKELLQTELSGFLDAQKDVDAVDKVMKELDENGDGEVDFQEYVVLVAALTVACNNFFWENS
The experiment can be described thus: steady-state fluorescence anisotropy. The following applies: modification not given.

Usually Kd stands for the concentration at which binding is half-saturated. A higher Kd goes with lower affinity. In turn, LIGRAYRSNYTRAHFR [TRPM6np K532A 520-535, Q9BX84] returned a dissociation constant (Kd) of 24.8 µM. Molecule LIGRAYRSNYTAAHFA [TRPM6np K532A/R531A/R535A 520-535, Q9BX84] displayed a Kd of 81.8 µM. LIGRAYASNYTAAHFA [TRPM6np K532A/R531A/R535A/R526A 520-535, Q9BX84]: the dissociation constant (Kd) came out at 130 µM. As to LIGRAYRSNYTAAHFR [TRPM6np K532A/R531A 520-535, Q9BX84], the Kd stood at 50.2 µM.
